Laboratory results published in patent US20240100176A1 (Eli Lilly, published 2024).

How the values were obtained:
Assay in all cases: capture ELISA: Ab1 on anti-human IgG Fc, His-tagged receptor at 1 µg/mL, anti-His HRP
[1] = target: T1, hexahistidine tagged human IL-4Rα ECD L43G (human, UniProt P24394 26-232)
T1 construct: not shown: hexahistidine tag
Text: (§1) Example 2d. […] Briefly, thirty surface amino acid residue substitutions were introduced individually into hexahistidine tagged human IL-4Rα extra cellular domain (ECD) as follows: K2D, E6R, K22D, P26R, T31R, F41A, L42G, L43G, E45R, E52R, G56R, D66R, A71R, Q82G, K87D, E94R, H107A, D108R, P124R, D125R, D143R, R148D, L155R, R160D, S164R, S168R, Q181R, P192R, K195D, or H197G. Each mutant protein having a single amino acid residue substitution as described above was transiently expressed in CHO cells and purified using standard immobilized metal affinity chromatography techniques. […] The plates were then washed 3 times with PBST and the exemplified human IL-4Rα antibody was added to the wells at a final concentration of 1 μg/mL in PBS-casein and incubated for 1 hour at room temperature. The plates were washed 3 times with PBST, the IL-4Rα mutant proteins were serially diluted 5-fold from 1 μg/mL for 3 points. in PBS-casein and added to the plate at 50 μL/well and incubated for 1 hour at room temperature. The plates were washed 3 times with PBST and a 1000-fold dilution of anti-histidine tag antibody HRP conjugate (R&D Systems, Cat. #MAB050H) in PBS-casein was added and incubated for 45 minutes at room temperature. The plates were washed 3 times, TMB substrate (Pierce, Cat. #34028) was added per manufacturer instructions, the reaction was quenched with H₂SO₄, and absorbance was read at 450 nm on an ELISA plate reader.

[2] = target: T2, hexahistidine tagged human IL-4Rα ECD E6R (human, UniProt P24394 26-232)
T2 construct: not shown: hexahistidine tag
Text: as §1

[3] = target: T3, hexahistidine tagged human IL-4Rα ECD K22D (human, UniProt P24394 26-232)
T3 construct: not shown: hexahistidine tag
Text: as §1

[4] = target: T4, hexahistidine tagged human IL-4Rα ECD L155R (human, UniProt P24394 26-232)
T4 construct: not shown: hexahistidine tag
Text: as §1

[5] = target: T5, hexahistidine tagged human IL-4Rα ECD D125R (human, UniProt P24394 26-232)
T5 construct: not shown: hexahistidine tag
Text: as §1

[6] = target: T6, hexahistidine tagged human IL-4Rα ECD K2D (human, UniProt P24394 26-232)
T6 construct: not shown: hexahistidine tag
Text: as §1

[7] = target: T7, hexahistidine tagged human IL-4Rα ECD F41A (human, UniProt P24394 26-232)
T7 construct: not shown: hexahistidine tag
Text: as §1

[8] = target: T8, hexahistidine tagged human IL-4Rα ECD R160D (human, UniProt P24394 26-232)
T8 construct: not shown: hexahistidine tag
Text: as §1

[9] = target: T9, hexahistidine tagged human IL-4Rα ECD Q82G (human, UniProt P24394 26-232)
T9 construct: not shown: hexahistidine tag
Text: as §1

[10] = target: T10, hexahistidine tagged human IL-4Rα ECD T31R (human, UniProt P24394 26-232)
T10 construct: not shown: hexahistidine tag
Text: as §1

[11] = target: T11, hexahistidine tagged human IL-4Rα ECD H197G (human, UniProt P24394 26-232)
T11 construct: not shown: hexahistidine tag
Text: as §1

[12] = target: T12, hexahistidine tagged human IL-4Rα ECD K87D (human, UniProt P24394 26-232)
T12 construct: not shown: hexahistidine tag
Text: as §1

[13] = target: T13, hexahistidine tagged human IL-4Rα ECD A71R (human, UniProt P24394 26-232)
T13 construct: not shown: hexahistidine tag
Text: as §1

[14] = target: T14, hexahistidine tagged human IL-4Rα ECD P26R (human, UniProt P24394 26-232)
T14 construct: not shown: hexahistidine tag
Text: as §1

[15] = target: T15, hexahistidine tagged human IL-4Rα ECD P192R (human, UniProt P24394 26-232)
T15 construct: not shown: hexahistidine tag
Text: as §1

[16] = target: T16, hexahistidine tagged human IL-4Rα ECD K195D (human, UniProt P24394 26-232)
T16 construct: not shown: hexahistidine tag
Text: as §1

[17] = target: T17, hexahistidine tagged human IL-4Rα ECD P124R (human, UniProt P24394 26-232)
T17 construct: not shown: hexahistidine tag
Text: as §1

[18] = target: T18, hexahistidine tagged human IL-4Rα ECD L42G (human, UniProt P24394 26-232)
T18 construct: not shown: hexahistidine tag
Text: as §1

[19] = target: T19, hexahistidine tagged human IL-4Rα ECD E45R (human, UniProt P24394 26-232)
T19 construct: not shown: hexahistidine tag
Text: as §1

T19 sequence (P24394 26-232 E70R): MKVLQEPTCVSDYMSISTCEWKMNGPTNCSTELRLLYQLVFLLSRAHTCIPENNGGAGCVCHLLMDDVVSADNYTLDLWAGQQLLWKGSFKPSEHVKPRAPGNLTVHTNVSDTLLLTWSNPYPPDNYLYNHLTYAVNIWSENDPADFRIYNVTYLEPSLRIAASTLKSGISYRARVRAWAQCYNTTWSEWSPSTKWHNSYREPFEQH
T5 sequence (P24394 26-232 D150R): as the sequence (P24394 26-232 E70R) above, with R45E, D125R counted along it
T13 sequence (P24394 26-232 A96R): as the sequence (P24394 26-232 E70R) above, with R45E, A71R counted along it
T9 sequence (P24394 26-232 Q107G): as the sequence (P24394 26-232 E70R) above, with R45E, Q82G counted along it
T1 sequence (P24394 26-232 L68G): as the sequence (P24394 26-232 E70R) above, with L43G, R45E counted along it
T3 sequence (P24394 26-232 K47D): as the sequence (P24394 26-232 E70R) above, with K22D, R45E counted along it
T17 sequence (P24394 26-232 P149R): as the sequence (P24394 26-232 E70R) above, with R45E, P124R counted along it
T10 sequence (P24394 26-232 T56R): as the sequence (P24394 26-232 E70R) above, with T31R, R45E counted along it
T18 sequence (P24394 26-232 L67G): as the sequence (P24394 26-232 E70R) above, with L42G, R45E counted along it
T6 sequence (P24394 other isoform, or with tags, fused parts or gaps): as the sequence (P24394 26-232 E70R) above, with K2D, R45E counted along it
T8 sequence (P24394 26-232 R185D): as the sequence (P24394 26-232 E70R) above, with R45E, R160D counted along it
T4 sequence (P24394 26-232 L180R): as the sequence (P24394 26-232 E70R) above, with R45E, L155R counted along it
T2 sequence (P24394 other isoform, or with tags, fused parts or gaps): as the sequence (P24394 26-232 E70R) above, with E6R, R45E counted along it

B1: anti-human IL-4Rα antibody Ab1 (antibody, human IgG4 S228P, kappa)
heavy: QVQLVESGGGLVQPGGSLRLSCVASGFTFSHSSMNWVRQAPGKGLEWVSYISRATGAVYYADSVKGRFTISRDNAKNSLYLQMNSLRDEDTAVYYCAREPVFDYWGQGTLVTVSSASTKGPCVFPLAPCSRSTSESTAALGCLVKDYFPEPVTVSWNSGALTSGVHTFPAVLQSSGLYSLSSVVTVPSSSLGTKTYTCNVDHKPSNTKVDKRVESKYGPPCPPCPAPEFLGGPSVFLFPPKPKDTLMISRTPEVTCVVVDVSQEDPEVKFNWYVDGVEVHNAKTKPREEQFNSTYRVVSVLTVLHQDWLNGKEYKCKVSNKGLPSSIEKTISKAKGQPREPQVYTLPPSREEMTKNQVSLTCLVKGFYPSDICVEWESNGQPENNYKTTPPVLDSDGSFFLYSRLTVDKSRWQQGNVFSCSVMHEALHNHYTQKSLSLSLG
light: DIQMTQSPSAMSASVGDRVTITCRASQDISNYLAWFQQKPGKVPTRLIYAASSLQSGVPSRFSGSGSGTEFTLTISSLQPEDFATYYCLQWSSYPRTFGQGTKVEIKRTVAAPSVFIFPPSDEQLKSGTASVVCLLNNFYPREAKVQWKVDNALQSGNSQESVTEQDSKDSTYSLSSTLTLSKADYEKHKVYACEVTHQGLSSPVTKSFNRGEC
notes: human kappa light chain; also called anti-human IL-4Rα Ab1; unconjugated Ab1
ELISA (OD450) [1]: 1.7 OD450
ELISA (OD450) [2]: 2.25 OD450
ELISA (OD450) [3]: 1.67 OD450
ELISA (OD450) [4]: 1.78 OD450
ELISA (OD450) [5]: 1.79 OD450
ELISA (OD450) [6]: 2.05 OD450
ELISA (OD450) [7]: 1.76 OD450
ELISA (OD450) [8]: 1.91 OD450
ELISA (OD450) [9]: 1.74 OD450
ELISA (OD450) [10]: 1.64 OD450
ELISA (OD450) [11]: 1.85 OD450
ELISA (OD450) [12]: 1.75 OD450
ELISA (OD450) [13]: 1.7 OD450
ELISA (OD450) [14]: 1.66 OD450
ELISA (OD450) [15]: 1.94 OD450
ELISA (OD450) [16]: 1.91 OD450
ELISA (OD450) [17]: 1.84 OD450
ELISA (OD450) [18]: 1.71 OD450
ELISA (OD450) [19]: 1.7 OD450
